Assay results published in patent publication US20170044545.

Biological target: Autotaxin (ENPP2, NPP2) (Homo sapiens) (UniProt Q13822)
Experiment: inhibition
Settings: 2'-F pyrimidines, 2'-OH purines

Sequence: CGGAUACGUCUCACUUCGUCNNNNNNNNNNNNNNNNNNNNNNNNNNNNNNCAGAGCGUUUAGAGUGCGGUCCC [30N RNA pool]
- IC50: > 1000 nM

Sequence: GUACGAAGACGCAUCUCACNNNNNNNNNNNNNNNNNNNNNNNNNNNNNNNNNNNNNNNNGUUCCAUGUCCUGUUGCCACCC [40N RNA pool]
- IC50: > 1000 nM
